# Laboratory results from patent US20260007747A1 (VIVASOR, published 2026).
# B1: αPDL1-γ-TCRγδ receptor encoded by construct GD109 (other)
# chain 1: EVQLVESGAEVKKPGSSVKVSCKASGGTFSSYAISWVRQAPGQGLEWMGGIIPIFGTANYAQKFQGRVTITADESTSTAYMELSSLRSEDTAVYYCARAPYYYYYMDVWGQGTTVTVSSGGGGSGGGGSGGGGSQSALTQPASVSGSLGQSVTISCTGSSSDVGSYNLVSWYQQHPGKAPNLMIYDVSKRSGVSNRFSGSKSGNTASLTISGLQAEDEADYYCSSYTGISTVVFGGGTKLTVLPIKTDVITMDPKDNCSKDANDTLLLQLTNTSAYYMYLLLLLKSVVYFAIITCCLLRRTAFCCNGEKS
# chain 2: EVKTDSTDHVKPKETENTKQPSKSCHKPKAIVHTEKVNMMSLTVLGLRMLFAKTVAVNFLLTAKLFFL
# B2: PD-L1 CAR-ζFL (other)
# chain: EVQLVESGAEVKKPGSSVKVSCKASGGTFSSYAISWVRQAPGQGLEWMGGIIPIFGTANYAQKFQGRVTITADESTSTAYMELSSLRSEDTAVYYCARAPYYYYYMDVWGQGTTVTVSSGGGGSGGGGSGGGGSQSALTQPASVSGSLGQSVTISCTGSSSDVGSYNLVSWYQQHPGKAPNLMIYDVSKRSGVSNRFSGSKSGNTASLTISGLQAEDEADYYCSSYTGISTVVFGGGTKLTVLAKPTTTPAPRPPTPAPTIASQPLSLRPEACRPAAGGAVHTRGLDFAPRKIEVMYPPPYLDNEKSNGTIIHVKGKHLCPSPLFPGPSKPFWVLVVVGGVLACYSLLVTVAFIIFWVKRGRKKLLYIFKQPFMRPVQTTQEEDGCSCRFPEEEEGGCELRVKFSRSADAPAYQQGQNQLYNELNLGRREEYDVLDKRRGRDPEMGGKPRRKNPQEGLYNELQKDKMAEAYSEIGMKGERRRGKGHDGLYQGLSTATKDTYDALHMQALPPR
# B3: αPDL1-δ-TCRγδ receptor encoded by construct GD102 (other)
# chain 1: EVQLVESGAEVKKPGSSVKVSCKASGGTFSSYAISWVRQAPGQGLEWMGGIIPIFGTANYAQKFQGRVTITADESTSTAYMELSSLRSEDTAVYYCARAPYYYYYMDVWGQGTTVTVSSGGGGSGGGGSGGGGSQSALTQPASVSGSLGQSVTISCTGSSSDVGSYNLVSWYQQHPGKAPNLMIYDVSKRSGVSNRFSGSKSGNTASLTISGLQAEDEADYYCSSYTGISTVVFGGGTKLTVLEVKTDSTDHVKPKETENTKQPSKSCHKPKAIVHTEKVNMMSLTVLGLRMLFAKTVAVNFLLTAKLFFL
# chain 2: PIKTDVITMDPKDNCSKDANDTLLLQLTNTSAYYMYLLLLLKSVVYFAIITCCLLRRTAFCCNGEKS
# Molecular target: PD-L1 expressed on tumor cells (A549 wild type, MDA-MB-231, SK-MEL-5) (human, UniProt Q9NZQ7 19-290)
# Assay: cell-based or functional assay
# Chain of PD-L1 expressed on tumor cells (A549 wild type, MDA-MB-231, SK-MEL-5) (Q9NZQ7 19-290): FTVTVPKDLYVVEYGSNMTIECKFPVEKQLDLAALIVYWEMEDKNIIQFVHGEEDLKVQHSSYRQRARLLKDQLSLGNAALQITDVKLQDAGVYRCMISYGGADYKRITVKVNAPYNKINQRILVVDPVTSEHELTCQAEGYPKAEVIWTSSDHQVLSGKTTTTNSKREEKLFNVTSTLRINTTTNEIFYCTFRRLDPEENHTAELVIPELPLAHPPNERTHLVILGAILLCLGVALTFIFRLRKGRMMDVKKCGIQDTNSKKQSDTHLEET
row,"expansion of T cells on irradiated tumor cells, E:T 1:4 [fold]",Binder
1,> 100,B1
2,> 100,B2
3,> 100,B3
